In the DeepSol protein solubility set:

Test: soluble on expression in E. coli; label from the status in PepcDB or PDB records

Sequence | soluble on expression in E. coli
MTNNSTKVCVLLATYNGTKWCLDQVKSILNQEDVNLEVFVSDDLSSDSTTDLLALLNDSRIHILASSYKFGSACQNFFRLVRDVDFSEYDYIAFADQDDLWNPNKLSYSIEQLNAHCADAFSSNVTAFWPDGRARLIVKDQPQREWDFLFESAGPGCTFVLTKKLACNLANFLHNNYEKTKGVALHDWFTYAFARSNSYSWWIDSQPTMMYRQHESNEFGVNSGVTAALSRFRKTSNGWYRNQVILIGDLVGAEDSWPIKRMRRFSLLDRMLLLFNVFAFRRSFRDRIALFFLLLLPQKKLEHHHHHH | soluble
MAGDPMGQKTQQDIVAGLDEKAKEYTSYKAKAKMTIETGSEPQVYNVEIWHKKPSLYRVYLENPKKDQNQVILRNENGVFVLTPSLNKSFRFQSDWPNNSSQVYLFESLVKDVQNDSDAVFTAKEKKYVFETKTNYQHNKMLPTQEITFNKKDMSPSSVKVMDTDRKVMVKVEFSSFEFNKQFDKESFDEKKNMTLSQMDVATSAKPSDTFAVKTPLELPLGVKLLEEKDISTEDGKRIIMTYGGEKSFTLIQEKAQIAKASSSVTLNGEPVNLGYTIGALSDASLSWTYDGVDYLLSSKDLSKEEMVTVAKSMQGQSSKLEHHHHHH | soluble
MGHHHHHHSHMVKFKVIALAALMGISGMAAQANELPDGPHIVTSGTASVDAVPDIATLAIEVNVAAKDAATAKKQADERVAQYISFLELNQIAKKDISSANLRTQPDYDYQDGKSILKGYRAVRTVEVTLRQLDKLNSLLDGALKAGLNEIRSVSLGVAQPDAYKDKARKAAIDNAIHQAQELANGFHRKLGPVYSVRYHVSNYQPSPMVRMMKADAAPVSAQETYEQAAIQFDDQVDVVFQLEPVDQQPAKTPAAQ | soluble
MALEKEEEASQNGAFCVLDGLYCEEETGFVEDDLDDDGDLDFLEKSDESVVKFQFLPLLDMFLWDDDEILSLISKENETNPCFGEQILDGFLVSCRKEALDWVLRVKSHYGFTSLTAILAVNYFDRFMTSIKLQTDKPWMSQLVAVASLSLAAKVEEIQVPLLLDLQVEEARYLFEAKTIQRMELLILSTLQWRMHPVTPISFFDHIIRRFGSKWHQQLDFCRKCERLLISVIADTRFMRYFPSVLATAIMILVFEELKPCDEVEYQSQITTLLKVNQEKVNECYELLLEHNPSKKRMMNLVDQDSPSGVLDFDDSSNSSWNVSTTASVSSSSSSPEPLLKRRRVQEQQMRLPSINRMFLDVLSSPR | soluble
EVPTIDGRAKIRIEAGTQPGKMLRLRNKGLPSVNGYGMGDQLVNVNVYIPESIDAKDEQAIAAMENSDSFKPTDAARKDIDKKYREMLD | not soluble
MRIIMPVEFSRIVRDVERLIAVEKYSLQGVVDGDKLLVVGFSEGSVNAYLYDGGETVKLNREPINSVLDPHYGVGRVILVRDVSKGAEQHALFKVNTSRPGEEQRLEAVKPMRILSGVDTGEAVVFTGATEDRVALYALDGGGLRELARLPGFGFVSDIRGDLIAGLGFFGGGRVSLFTSNLSSGGLRVFDSGEGSFSSASISPGMKVTAGLETAREARLVTVDPRDGSVEDLELPSKDFSSYRPTAITWLGYLPDGRLAVVARREGRSAVFIDGERVEAPQGNHGRVVLWRGKLVTSHTSLSTPPRIVSLPSGEPLLEGGLPEDLRRSIAGSRLVWVESFDGSRVPTYVLESGRAPTPGPTVVLVAGGPFAEDSDSWDTFAASLAAAGFHVVMPNYRGSTGYGEEWRLKIIGDPCGGELEDVSAAARWARESGLASELYIMGYSYGGYMTLCALTMKPGLFKAGVAGASVVDWEEMYELSDAAFRNFIEQLTGGSREIMRSRSPINHVDRIKEPLALIHPQNDSRTPLKPLLRLMGELLARGKTFEAHIIPDAGHAINTMEDAVKILLPAVFFLATQRERR | soluble
MAHHHHHHSLCPCPHSQAQGETDGEAEWHNAALDFTHAMSYGDYLKLDKVLDAQFPLSPDHNEMLFIIQHQTSELWMKLMLHELRAAREHVKSGKLGPALKMLARVSRIFDQLVHAWAVLATMTPTEYNTIRPYLGQSSGFQSYQYREIEFILGNKNATLLKPHAHRAELLAALEQALHTPSLYDEAIRLMAAQGLPVSQERLARDAAAGTCYEASVEAAWRQVYQAPERYWDLYQLAEKLIDLEDSFRQWRFRHVTTVERIIGFKPGTGGTEGVGYLRSMLDTILFPELWRLRSNEG | soluble
MGSDKIHHHHHHMNKQPLAFRMRPKKIEDVVGQQHLIGKGKIIWRMVQAHRLSSMILYGEPGTGKTSIASAIAGSTELSFRILNAATDGKKELQEVAEEGKMSGSVILLLDEIHRLDKTKQDFLLPHLESGRIVLIGATTENPYLSVTPAIRSRTQIFHVEALSEKDIKTAINRALSDKENGLGNYNIKLDDRAKNHLSTATNGDLRSALNGLELAVLSTKAVGKEKEIHITLPIIEETIQRKSMSGDKNGDAHYDVISAFQKSIRGSDADAGIYYLGRILEAGDLTIAARRLLVIAYEDVGLANPNAAAHAVQAVTAALQLGLPEARIPLANAVIELALSPKSNSAYGAINSAIGDIEKGNTGDVPIHLKNTRNWGKTKNQ | not soluble
MTIATSVAGSSENFAELFNESLSHKEMRVGEVITAEIIRVDYNFVVVNAGLKSESYIPIEEFKNDRGEIEAREGDFVSVAIEALENGFGETRLSRDKAKRLNAWYELEEAMEKGKIVTGMVNGKVKGGLTATINGIRAFLPGSLVDIRPVKDMTPYENKEMEFKVIKLDRKRNNVVVSRRAVLEETQGADRDELLASLQDGAVVQGIVKNITDYGAFVDLGGIDGLLHITDLAWRRVKHPTEVINVGDEVTAKVLKFDQEKNRVSLGLKQLTEDPWIGLSRRYPQGTRIFGKVTNMTDYGAFVEIEQGIEGLVHVSEMDWTNKNVYPSKIVQLGDEVEVMILEIDEDRRRISLGMKQCRPNPWEEFSLSHEKGDKVTGQIKSITDFGLFIGLPGNIDGLVHLSDLSWNQPGEKAISEFKKGDEVEAVVLSIDVEKERISLGIKQLEGDPFNIYVASHDKNSIVKGTVKSVDAKGAVIALTDEVEGYLRASEFSRDKIEDIRSRVNEGDEIEAMIINIDRKNRSISLSVKARIQDEEDKAVKSLASVSNPASAGTTNLGALLKAKIDSKSSEELEHHHHHH | soluble
MAHHHHHHMSRCGRKLDMSSGYWLPRRLLLVRHGESEANVDRALYSKVPDWKIPLTARGREQAFECGRRLRKIIKNEKLYVYYSPYTRTRQTLTEVRKSLLPSQVQGEREDERLREQEIGNFQPLDKMDEMWAERSEFGRSYYRFPDGESSVDVGDRVSKFFDSLFRERVELNYLSARKQMITGSSNDVGPASFTVPDDDDHNVVIISHGLLIRLFVGRWYSAPMEVFETMKNPPNCGIVVLERREAGRLVMTDTSKKLFGSDPLLEMMKFDGKDNVQLFRHLFAEGGYSFSAGEGTDR | soluble
MGHHHHHHSHMEEKFEDRSPAAECLSEKETEELMAWMRNVLGSRVTNVKVTLRLDTHPAMVTVLEMGAARHFLRMQQLAKTQEERAQLLQPTLEINPRHALIKKLNQLRASEPGLAQLLVDQIYENAMIAAGLVDDPRAMVGRLNELLVKALERH | soluble
MRHGCHTVIASRSLPRVLTAARKLAGATGRRCLPLSMDVRAPPAVMAAVDQALKEFGRIDILINCAAGNFLCPAGALSFNAFKTVMDIDTSGTFNVSRVLYEKFFRDHGGVIVNITATLGNRGQALQVHAGSAKAAVDAMTRHLAVEWGPQNIRVNSLAPGPISGTEGLRRLGGPQASLSTKVTASPLQRLGNKTEIAHSVLYLASPLASYVTGAVLVADGGAWLTFPNGVKGLPDFASFSAKL | not soluble
MSLKKVKCITGMISLQGKRPTNEDTEIVKDKIKKDKIKFGLYAVFDGHGGSGTSQAAISVVEEELMKSELMKKKMYEEMMNEIFSKSDKILCNTVYDNSGCTAAVVLVIGRFLICANVGDSEVLVISEGKQYEVLSVQHKAKLPDEKKRITSLGVPVYGGRVYGSLAVSRSLGDKQYKGGRGAVISTPHVKVYEMTKKDKAFVISCDGIYETLNYDDVVDWVITGMKLNKAPTIIAENIAMDALEKGSKDNVSVIVSLLKWKEGHHHHHH | not soluble
MGSDKIHHHHHHMQIELANFEKIYTHFVGNKSDEEGITISKTPLQLNDESLKELLLNYFTHPFKNKEYNHFHHETDLNLNELYTYCSTIFADPDALYLQSINIAKHLYEQSKHPMIKGGELYVVHFNDCVIDGESTDAIGLFKSETKETFLKIFPQGDGYEAVSDKGIDIRKLDKGCFIINSEKENGYKVCVVDQTNKSSDAQYWKDDFLKIVSRNDSFHYTQNYMNMCKSFVTDQMPETFEVSKTDQIDLLNRSVNYFKKNESFDMQAFTNDVIQDEGLIDSFKEYKNKFQEDHQMPMVDEFEISTPAVKKYAKVFKSVLKLDRNFHIYIHGDKDLIERGRDDASGMNFYKIYYKEES | not soluble
MTSIQQRDAQSVLAAIDNLLPEIRDRAQATEDLRRLPDETVKALDDVGFFTLLQPQQWGGLQCDPALFFEATRRLASVCGSTGWVSSIVGVHNWHLALFDQRAQEEVWGEDPSTRISSSYAPMGAGVVVDGGYLVNGSWNWSSGCDHASWTFVGGPVIKDGRPVDFGSFLIPRSEYEIKDVWYVVGLRGTGSNTLVVKDVFVPRHRFLSYKAMNDHTAGGLATNSAPVYKMPWGTMHPTTISAPIVGMAYGAYAAHVEHQGKRVRAAFAGEKAKDDPFAKVRIAEAASDIDAAWRQLIGNVSDEYALLAAGKEIPFELRARARRDQVRATGRSIASIDRLFEASGATALSNEAPIQRFWRDAHAGRVHAANDPERAYVIFGNHEFGLPPGDTMV | soluble
MKIESAVEISKTATDFHTALDASSVIGSDRVDQLKSILNLTKSDTALLESNITQAKQLKITLDAQLQQRKALVDEYKSKLTVLEGSYMRKSAEVQRLQNELQNAQKAHAMKATTAPNEKNQANCSIS | not soluble
MSLLPKELLDVRRAKGRIFPKFADERDYELAEKVIEIFKKGLGKKYGNLMKQARKLENAKNFKKVRGFIRVLENHCIEKSCAFDVDSELEPRKVRMLLFEHGFVTSKKERDRVLEYVARYFSTTPETVERAMYADREEELILTKFRPLTPDNLIKLYNLSLLQTTLFNALRLTFWASDRHKEIFRSIKRLGLMYELYEDSGRLMVEVTGAATLLKMTRKYGVSFAKLIPWILRAKNWFIRAEISDFDRLYIMEIDDRIRDLFPDVEERLSYDSTLEEEFARKMQMLGYEVEREPDVVKAGKYAFIPDFAVNLGDKKVYIEIAGFWTDEYLRKKAEKIKSSSIPLILIAREDFGDGGANVKDVILFSRKIPYGEVIKALKRYKPEKKVEGDVVELENFAEVPSEYVIAGKYAVRREIFEEIKREIEVSNPSTLEDIKAILKKYGLGESAIRAFGYRVRWIGLGEAVIERTDEGHHHHHH | not soluble
MITVNTLQKMKAAGEKIAMLTAYESSFAALMDDAGVDVLLVGDSLGMAVQGRQSTLPVSLRDMCYHTECVARGAKNAMIVSDLPFGAYQQSKEQAFAAAAELMAAGAHMVKLEGGVWMAETTEFLQMRGIPVCAHIGLTPQSVFAFGGYKVQGRGGKAQALLNDAKAHDDAGAAVVLMECVPAELAKKVTESVSCPTIGIGAGVDCDGQVLVMHDMLGIFPGKTAKFVKNFMQGQSSIQAAVRAYVAEVKAKTFPAAEHIFAD | not soluble
MGSDKIHHHHHHQIQQQSPYPKREFRGAWIQAVNGQFRGIPTEKLKQTLIDQLNSLQGAGINAIIFQVRPEADALYASQLEPWSRFLTGVQGQAPSPYWDPMQFMIDECHKRGMEFHAWINPYRVKTSLKSELSANHLYNIHPEWFVTYNNQLFFDPALPESRRHICMVVADIVSRYDVDAIHMDDYFYPYPAKGMDFPDDASFARYGGGFTNRADWRRSNVNILIQKIHETIRGLKPWVKFGISPFGIYRNEKNDPLGSKTNGLQNYDDLYADVLLWARNGWVDYNIPQIYWQIGHPAADYETLVKWWAKNTENRPLFIGQSVMNTIQNADPKNPSMNQLPRKMALERAYQTIGGSCQWPASAVVENAGKYRDALVQEYHKYPALVPVFDFMDDKAPGKVRKVKKVWTEDGYMLFWTPPKAKDEMDRAVQYVVYRFGDKEKVNIDDASHIVAVTRNNFYKLPYKDGKNKYRYVVTALDRLHNESKSVSKKVKL | not soluble
